Tests used:
[1] = molecular target: T1, human CD3 (human, UniProt P07766 23-207; P04234 22-171; P09693 23-182); assay: FACS, culture supernatant on Jurkat cells; anti-His detection
T1 construct: whole, on cells; also called CD3 antigen; human CD3 complex
Protocol: (§1) 250000 Jurkat cells (for CD3 binding) and Kato cells (for EpCAM binding) were independently incubated with cell culture supernatants (50 μl) containing the bispecific construct (pEF-DHFR-3-1×anti-CD3 (VH5/VL2) (Nr.50, SEQ ID NO.: 48) and pEF-DHFR-5-10×anti-CD3 (VH5/VL2) (Nr.54) (SEQ ID NO.:62), respectively) for 45 min. at 4° C. Thereafter, the cells were washed twice in FACS buffer (phosphate-buffered saline containing 1% fetal calf serum (FCS) and 0.05% sodium azide) and incubated with mouse anti-His antibody (Dianova, DIA910) for 60 min. at 4° C. Washing steps were performed as above.
(§2) The cells were finally incubated either with goat anti-mouse Ig-FITC-conjugated antibody (BD 550003) or with anti-mouse IgG conjugated with PE (Sigma, P8547). After washing steps, 10000 events were analysed using FACS Calibur (B&D).

[2] = molecular target: T2, Epithelial cell adhesion molecule (EpCAM) (human, UniProt P16422 24-314); assay: FACS, culture supernatant on Kato cells (for EpCAM binding); anti-His detection
T2 construct: whole, on cells; also called 17-1A antigen; KSA
T2 sequence (looked up): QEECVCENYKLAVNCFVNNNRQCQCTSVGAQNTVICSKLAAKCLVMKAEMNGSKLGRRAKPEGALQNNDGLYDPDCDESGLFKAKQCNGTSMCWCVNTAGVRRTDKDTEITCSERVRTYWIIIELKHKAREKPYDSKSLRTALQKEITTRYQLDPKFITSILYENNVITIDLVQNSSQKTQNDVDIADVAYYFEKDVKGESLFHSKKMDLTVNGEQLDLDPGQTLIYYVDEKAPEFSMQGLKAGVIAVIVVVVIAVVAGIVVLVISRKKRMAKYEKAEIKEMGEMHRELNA
Protocol: as §1, §2

B1: 5-10×anti-CD3 (VH5/VL2) (SEQ ID NO.:63) (bispecific antibody)
chain: ELVMTQSPSSLTVTAGEKVTMSCKSSQSLLNSGNQKNYLTWYQQKPGQPPKLLIYWASTRESGVPDRFTGSGSGTDFTLTISSVQAEDLAVYYCQNDYSYPLTFGAGTKLEIKGGGGSGGGGSGGGGSEVQLLEQSGAELVRPGTSVKISCKASGYAFTNYWLGWVKQRPGHGLEWIGDIFPGSGNIHYNEKFKGKATLTADKSSSTAYMQLSSLTFEDSAVYFCARLRNWDEPMDYWGQGTTVTVSSGGGGSDVQLVQSGAEVKKPGASVKVSCKASGYTFTRYTMHWVRQAPGQGLEWIGYINPSRGYTNYADSVKGRFTITTDKSTSTAYMELSSLRSEDTATYYCARYYDDHYCLDYWGQGTTVTVSSGEGTSTGSGGSGGSGGADDIVLTQSPATLSLSPGERATLSCRASQSVSYMNWYQQKPGKAPKRWIYDTSKVASGVPARFSGSGSGTDYSLTINSLEAEDAATYYCQQWSSNPLTFGGGTKVEIK
notes: Bispecific single chain with anti-EpCAM at the N-terminus; tested as CHO culture supernatant; detected by anti-His; also called pEF-DHFR-5-10×anti-CD3 (VH5/VL2); Nr.54
Question: What does the source list for B1?
Answer: binding result [1]: binds; binding result [2]: binds

Reference: patent US20090022738A1 (MICROMET, published 2009)
